Measured values as given in US20190185537A1 (AstraZeneca / MedImmune, published 2019).
Read-outs that look alike come from different tables or passages of the source. Numbered stars: 1 amine (or outer) side, 2 acyl side, 3 side chain; on linkers, the order of the positions; unused ones are H or OH. Side chains are listed from the residue outwards. Ends that are not written are not given here. * marks the point of attachment. γGlu = O=C(O)[C@H](CCC(=O)[*:2])N[*:1]; Palmitoyl = CCCCCCCCCCCCCCCC(=O)*

Tests used:
[1] = target: T1, human glucose-dependent insulinotropic peptide (gastric inhibitory polypeptide) receptor (human, UniProt P48546 22-466); assay: cell-based or functional assay
T1 sequence (looked up): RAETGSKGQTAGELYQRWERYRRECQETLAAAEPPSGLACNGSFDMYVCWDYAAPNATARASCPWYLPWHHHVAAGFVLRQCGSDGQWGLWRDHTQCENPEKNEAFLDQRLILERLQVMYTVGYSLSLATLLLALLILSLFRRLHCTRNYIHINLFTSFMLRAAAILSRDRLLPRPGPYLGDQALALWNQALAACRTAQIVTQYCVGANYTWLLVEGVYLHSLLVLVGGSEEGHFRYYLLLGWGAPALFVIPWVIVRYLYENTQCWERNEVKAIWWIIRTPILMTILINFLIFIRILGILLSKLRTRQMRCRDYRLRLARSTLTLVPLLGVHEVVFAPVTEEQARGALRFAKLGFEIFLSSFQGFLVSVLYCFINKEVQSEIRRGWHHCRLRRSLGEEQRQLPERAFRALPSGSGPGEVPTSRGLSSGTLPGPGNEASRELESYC

human GLP-1 receptor [2] = target: T2, human GLP-1 receptor (human, UniProt P43220 24-463); assay: cell-based or functional assay
human glucagon receptor [3] = target: T3, human glucagon receptor (human, UniProt P47871 26-477); assay: cell-based or functional assay
T3 sequence (P47871 26-477): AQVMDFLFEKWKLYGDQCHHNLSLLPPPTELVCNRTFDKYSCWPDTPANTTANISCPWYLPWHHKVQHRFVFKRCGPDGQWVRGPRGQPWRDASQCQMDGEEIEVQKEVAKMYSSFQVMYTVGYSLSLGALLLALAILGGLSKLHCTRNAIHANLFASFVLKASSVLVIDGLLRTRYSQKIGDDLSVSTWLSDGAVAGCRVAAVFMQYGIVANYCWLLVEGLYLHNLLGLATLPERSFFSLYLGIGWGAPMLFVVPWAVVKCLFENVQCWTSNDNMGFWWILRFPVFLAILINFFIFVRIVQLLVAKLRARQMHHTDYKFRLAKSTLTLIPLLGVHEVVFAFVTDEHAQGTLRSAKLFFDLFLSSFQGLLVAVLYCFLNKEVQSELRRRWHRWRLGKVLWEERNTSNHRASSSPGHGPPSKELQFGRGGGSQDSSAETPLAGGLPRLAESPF

human GLP-1 receptor [4] = target: T2, human GLP-1 receptor; assay: cell-based or functional assay; remark: listed apart in the source
[5] = target: T1, human glucose-dependent insulinotropic …; assay: cell-based or functional assay; remark: listed apart in the source
human GLP-1 receptor [6] = target: T2, human GLP-1 receptor; assay: cell-based or functional assay; remark: listed apart in the source
human glucagon receptor [7] = target: T3, human glucagon receptor; assay: cell-based or functional assay; remark: listed apart in the source
[8] = target: human serum albumin (human) (UniProt P02768); assay: calculated from the variation in cAMP generation with the HSA concentration
Sequence of human serum albumin (human) (P02768 25-609 limits assumed): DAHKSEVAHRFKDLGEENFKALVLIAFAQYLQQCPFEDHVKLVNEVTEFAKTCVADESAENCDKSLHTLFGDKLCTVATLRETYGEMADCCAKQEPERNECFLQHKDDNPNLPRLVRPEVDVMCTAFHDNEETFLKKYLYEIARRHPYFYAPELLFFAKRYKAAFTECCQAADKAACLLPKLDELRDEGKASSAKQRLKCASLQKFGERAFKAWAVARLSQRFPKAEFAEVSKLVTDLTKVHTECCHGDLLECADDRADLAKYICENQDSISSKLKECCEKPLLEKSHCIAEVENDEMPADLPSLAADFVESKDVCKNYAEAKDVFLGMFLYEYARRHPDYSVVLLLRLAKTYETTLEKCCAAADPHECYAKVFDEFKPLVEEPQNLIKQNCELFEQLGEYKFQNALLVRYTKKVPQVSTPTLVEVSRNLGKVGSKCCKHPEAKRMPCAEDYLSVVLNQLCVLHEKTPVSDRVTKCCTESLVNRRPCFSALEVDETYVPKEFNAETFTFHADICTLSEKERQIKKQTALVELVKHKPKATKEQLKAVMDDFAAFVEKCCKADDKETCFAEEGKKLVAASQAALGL

[9] = target: T1, human glucose-dependent insulinotropic …; assay: cell-based or functional assay; remark: listed apart in the source
human GLP-1 receptor [10] = target: T2, human GLP-1 receptor; assay: cell-based or functional assay; remark: listed apart in the source
human glucagon receptor [11] = target: T3, human glucagon receptor; assay: cell-based or functional assay; remark: listed apart in the source
rat glucagon receptor = rat glucagon receptor (rat, UniProt P30082 27-485); assay: cell-based or functional assay
Sequence of rat glucagon receptor (P30082 27-485): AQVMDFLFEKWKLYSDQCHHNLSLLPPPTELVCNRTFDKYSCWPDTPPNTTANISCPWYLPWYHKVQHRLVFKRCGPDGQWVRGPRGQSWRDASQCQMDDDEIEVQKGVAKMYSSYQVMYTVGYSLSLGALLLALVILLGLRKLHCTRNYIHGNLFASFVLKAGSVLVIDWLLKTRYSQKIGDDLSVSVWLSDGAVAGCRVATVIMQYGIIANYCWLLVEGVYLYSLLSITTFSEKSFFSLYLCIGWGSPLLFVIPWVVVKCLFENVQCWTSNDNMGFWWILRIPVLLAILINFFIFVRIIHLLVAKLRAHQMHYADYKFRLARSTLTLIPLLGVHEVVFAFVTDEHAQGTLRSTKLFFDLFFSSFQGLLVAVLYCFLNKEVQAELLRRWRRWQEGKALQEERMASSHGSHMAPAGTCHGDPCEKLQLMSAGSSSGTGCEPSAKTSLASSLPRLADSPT

human GLP-1 receptor [12] = target: T2, human GLP-1 receptor; assay: cell-based or functional assay; remark: listed apart in the source
rat GLP-1 receptor = target: T4, rat GLP-1 receptor (rat, UniProt P32301 22-463); assay: cell-based or functional assay
T4 sequence (looked up): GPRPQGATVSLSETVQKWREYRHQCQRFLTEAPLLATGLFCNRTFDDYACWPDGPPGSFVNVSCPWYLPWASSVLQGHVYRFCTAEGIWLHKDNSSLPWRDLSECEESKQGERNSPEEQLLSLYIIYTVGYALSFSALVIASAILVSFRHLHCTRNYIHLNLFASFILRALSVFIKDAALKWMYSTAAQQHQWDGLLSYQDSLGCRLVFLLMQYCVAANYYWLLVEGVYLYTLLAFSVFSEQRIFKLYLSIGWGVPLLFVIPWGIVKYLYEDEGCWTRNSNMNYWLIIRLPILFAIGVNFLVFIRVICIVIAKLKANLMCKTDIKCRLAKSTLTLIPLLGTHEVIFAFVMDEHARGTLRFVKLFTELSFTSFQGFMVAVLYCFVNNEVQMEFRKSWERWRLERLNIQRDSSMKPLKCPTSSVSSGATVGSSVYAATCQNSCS

mouse glucagon receptor = mouse glucagon receptor (mouse, UniProt Q61606 27-485); assay: cell-based or functional assay
Sequence of mouse glucagon receptor (Q61606 27-485): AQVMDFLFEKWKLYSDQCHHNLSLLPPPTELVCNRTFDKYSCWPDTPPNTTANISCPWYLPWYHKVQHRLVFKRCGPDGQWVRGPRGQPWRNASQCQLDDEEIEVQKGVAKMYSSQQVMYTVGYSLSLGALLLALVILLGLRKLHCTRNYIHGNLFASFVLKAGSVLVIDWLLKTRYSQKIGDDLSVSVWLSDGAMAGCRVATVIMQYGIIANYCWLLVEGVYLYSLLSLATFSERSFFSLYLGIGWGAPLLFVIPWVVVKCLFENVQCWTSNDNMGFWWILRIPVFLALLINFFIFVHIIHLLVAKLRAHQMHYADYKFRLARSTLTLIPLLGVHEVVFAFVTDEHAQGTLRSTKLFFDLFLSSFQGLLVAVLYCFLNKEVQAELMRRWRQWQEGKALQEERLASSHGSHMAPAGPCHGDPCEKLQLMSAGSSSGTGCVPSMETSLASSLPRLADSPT

mouse GLP-1 receptor = target: T5, mouse GLP-1 receptor (mouse, UniProt O35659 22-463); assay: cell-based or functional assay
T5 sequence (looked up): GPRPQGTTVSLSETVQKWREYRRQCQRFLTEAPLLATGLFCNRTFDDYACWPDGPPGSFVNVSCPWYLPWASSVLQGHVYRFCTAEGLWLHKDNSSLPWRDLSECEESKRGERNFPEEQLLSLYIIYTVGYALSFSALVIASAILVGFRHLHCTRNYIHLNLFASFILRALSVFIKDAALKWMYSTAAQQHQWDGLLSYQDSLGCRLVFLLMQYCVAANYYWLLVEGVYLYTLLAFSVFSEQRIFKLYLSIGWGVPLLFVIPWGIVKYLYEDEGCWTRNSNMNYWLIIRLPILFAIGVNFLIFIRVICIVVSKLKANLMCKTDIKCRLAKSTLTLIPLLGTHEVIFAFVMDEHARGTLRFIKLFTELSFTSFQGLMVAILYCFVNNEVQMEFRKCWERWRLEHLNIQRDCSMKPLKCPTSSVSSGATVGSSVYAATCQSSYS

human glucagon receptor [13] = target: T3, human glucagon receptor; assay: cell-based or functional assay; remark: listed apart in the source

| Binder | cAMP EC50 (assay 1) [1] [nM] | cAMP EC50 (assay 1) (human GLP-1 receptor [2]) [nM] | cAMP EC50 (assay 1) (human glucagon receptor [3]) [nM] | EC50 at the GLP1R at 0% HSA (calculated) (human GLP-1 receptor [4]) [nM] | cAMP EC50 (assay 1) [5] [nM] | cAMP EC50 (assay 1) (human GLP-1 receptor [6]) [nM] | cAMP EC50 (assay 1) (human glucagon receptor [7]) [nM] | free peptide at 4.4% HSA [8] [%] | cAMP EC50 (assay 1) [9] [nM] | cAMP EC50 (assay 1) (human GLP-1 receptor [10]) [nM] | cAMP EC50 (assay 1) (human glucagon receptor [11]) [nM] | cAMP EC50 (assay 2, 3.2% rat serum albumin) (rat glucagon receptor) [nM] | cAMP EC50 (assay 2, 4.4% human serum albumin) (human GLP-1 receptor [12]) [nM] | cAMP EC50 (assay 2, 3.2% rat serum albumin) (rat GLP-1 receptor) [nM] | cAMP EC50 (assay 2, 3.2% mouse serum albumin) (mouse glucagon receptor) [nM] | cAMP EC50 (assay 2, 3.2% mouse serum albumin) (mouse GLP-1 receptor) [nM] | cAMP EC50 (assay 2, 4.4% human serum albumin) (human glucagon receptor [13]) [nM] |
| --- | --- | --- | --- | --- | --- | --- | --- | --- | --- | --- | --- | --- | --- | --- | --- | --- | --- |
| HSQGTFTSDK([γGlu-Palmitoyl])SSYLDSRSARDFVAWLEAGG-OH (N-terminus assumed; SMILES CCCCCCCCCCCCCCCC(=O)N[C@@H](CCC(=O)NCCCC[C@H](NC(=O)[C@H](CC(=O)O)NC(=O)[C@H](CO)NC(=O)[C@@H](NC(=O)[C@H](Cc1ccccc1)NC(=O)[C@@H](NC(=O)CNC(=O)[C@H](CCC(N)=O)NC(=O)[C@H](CO)NC(=O)[C@@H](N)Cc1c[nH]cn1)[C@@H](C)O)[C@@H](C)O)C(=O)N[C@@H](CO)C(=O)N[C@@H](CO)C(=O)N[C@@H](Cc1ccc(O)cc1)C(=O)N[C@@H](CC(C)C)C(=O)N[C@@H](CC(=O)O)C(=O)N[C@@H](CO)C(=O)N[C@@H](CCCNC(=N)N)C(=O)N[C@@H](CO)C(=O)N[C@@H](C)C(=O)N[C@@H](CCCNC(=N)N)C(=O)N[C@@H](CC(=O)O)C(=O)N[C@@H](Cc1ccccc1)C(=O)N[C@H](C(=O)N[C@@H](C)C(=O)N[C@@H](Cc1c[nH]c2ccccc12)C(=O)N[C@@H](CC(C)C)C(=O)N[C@@H](CCC(=O)O)C(=O)N[C@@H](C)C(=O)NCC(=O)NCC(=O)O)C(C)C)C(=O)O) [G973] | 47 | 0.012 | 0.0089 | – | – | – | – | – | – | – | – | – | – | – | – | – | – |
| HSQGTFTSDK([γGlu-Palmitoyl])SKYLEGQAAKEFIAWLEKGR-OH (N-terminus assumed; SMILES CCCCCCCCCCCCCCCC(=O)N[C@@H](CCC(=O)NCCCC[C@H](NC(=O)[C@H](CC(=O)O)NC(=O)[C@H](CO)NC(=O)[C@@H](NC(=O)[C@H](Cc1ccccc1)NC(=O)[C@@H](NC(=O)CNC(=O)[C@H](CCC(N)=O)NC(=O)[C@H](CO)NC(=O)[C@@H](N)Cc1c[nH]cn1)[C@@H](C)O)[C@@H](C)O)C(=O)N[C@@H](CO)C(=O)N[C@@H](CCCCN)C(=O)N[C@@H](Cc1ccc(O)cc1)C(=O)N[C@@H](CC(C)C)C(=O)N[C@@H](CCC(=O)O)C(=O)NCC(=O)N[C@@H](CCC(N)=O)C(=O)N[C@@H](C)C(=O)N[C@@H](C)C(=O)N[C@@H](CCCCN)C(=O)N[C@@H](CCC(=O)O)C(=O)N[C@@H](Cc1ccccc1)C(=O)N[C@H](C(=O)N[C@@H](C)C(=O)N[C@@H](Cc1c[nH]c2ccccc12)C(=O)N[C@@H](CC(C)C)C(=O)N[C@@H](CCC(=O)O)C(=O)N[C@@H](CCCCN)C(=O)NCC(=O)N[C@@H](CCCNC(=N)N)C(=O)O)[C@@H](C)CC)C(=O)O) [G934] | 3.6 | 0.018 | 0.0063 | – | – | – | – | – | – | – | – | – | – | – | – | – | – |
| HSQGTFTSDYSKK([γGlu-Palmitoyl])LDSERARDFVAWLVAGG-NH2 (N-terminus assumed; SMILES CCCCCCCCCCCCCCCC(=O)N[C@@H](CCC(=O)NCCCC[C@H](NC(=O)[C@H](CCCCN)NC(=O)[C@H](CO)NC(=O)[C@H](Cc1ccc(O)cc1)NC(=O)[C@H](CC(=O)O)NC(=O)[C@H](CO)NC(=O)[C@@H](NC(=O)[C@H](Cc1ccccc1)NC(=O)[C@@H](NC(=O)CNC(=O)[C@H](CCC(N)=O)NC(=O)[C@H](CO)NC(=O)[C@@H](N)Cc1c[nH]cn1)[C@@H](C)O)[C@@H](C)O)C(=O)N[C@@H](CC(C)C)C(=O)N[C@@H](CC(=O)O)C(=O)N[C@@H](CO)C(=O)N[C@@H](CCC(=O)O)C(=O)N[C@@H](CCCNC(=N)N)C(=O)N[C@@H](C)C(=O)N[C@@H](CCCNC(=N)N)C(=O)N[C@@H](CC(=O)O)C(=O)N[C@@H](Cc1ccccc1)C(=O)N[C@H](C(=O)N[C@@H](C)C(=O)N[C@@H](Cc1c[nH]c2ccccc12)C(=O)N[C@@H](CC(C)C)C(=O)N[C@H](C(=O)N[C@@H](C)C(=O)NCC(=O)NCC(N)=O)C(C)C)C(C)C)C(=O)O) [G730] | – | – | – | 0.007 | 45 | 0.018 | 0.00623 | 0.85 | 56.6 | 0.0395 | 0.015 | 45.1 | 0.455 | 0.081 | 5.46 | 1.1 | 0.402 |
